Results on three substances are retold here after PMC4703857.

Broadly, the Kd is a measure of binding affinity in units of concentration.

The target in test [1] is human haemoglobin (human). The test is described as follows: ITC. (ITC needs no label: the signal is the heat of the interaction.)
Test [2] deals with haemoglobin:haptoglobin complex (UniProt P00738). The test is described as follows: ITC.
For test [3], the target named is transferrin (Homo sapiens) (UniProt P02787). To be noted: cited from earlier work.
Test [4] has as its target KdHpuA Δloop-1 (Kingella denitrificans). The experiment in a line: NMR titration.
Test [5] has as its target Kingella denitrificans HpuA, wild type (Kingella denitrificans). The test is described as follows: NMR titration.
Test [6] addresses KdHpuA T124D (Kingella denitrificans). The test is described as follows: NMR titration.
Test [7] has as its target Kingella denitrificans HpuA, wild type (Kingella denitrificans). The experiment in a line: ITC.

Chain of UniProt P02787 (P02787 20-698): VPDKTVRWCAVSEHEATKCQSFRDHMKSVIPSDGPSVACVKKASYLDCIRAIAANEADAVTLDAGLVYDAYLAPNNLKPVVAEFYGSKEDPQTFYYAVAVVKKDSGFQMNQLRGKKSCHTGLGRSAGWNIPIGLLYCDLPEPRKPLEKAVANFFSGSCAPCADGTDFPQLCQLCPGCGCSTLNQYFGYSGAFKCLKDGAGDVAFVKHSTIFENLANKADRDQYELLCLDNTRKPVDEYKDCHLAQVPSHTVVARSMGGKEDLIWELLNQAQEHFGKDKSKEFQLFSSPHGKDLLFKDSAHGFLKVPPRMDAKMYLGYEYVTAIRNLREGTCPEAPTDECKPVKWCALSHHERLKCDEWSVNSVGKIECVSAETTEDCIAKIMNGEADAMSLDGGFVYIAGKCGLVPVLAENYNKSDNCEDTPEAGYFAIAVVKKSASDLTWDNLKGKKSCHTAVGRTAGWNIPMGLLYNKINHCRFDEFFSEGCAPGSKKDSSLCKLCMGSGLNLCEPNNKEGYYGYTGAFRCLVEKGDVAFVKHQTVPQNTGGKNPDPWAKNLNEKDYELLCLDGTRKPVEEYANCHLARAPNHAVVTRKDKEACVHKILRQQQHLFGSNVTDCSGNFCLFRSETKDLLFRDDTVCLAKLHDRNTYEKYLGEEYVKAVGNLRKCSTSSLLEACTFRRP

Consider “Kingella denitrificans HpuA, wild type (natural protein)”, for which, in test [1], the Kd turned out to be 10.9 µM and the stoichiometry N (HpuA per Hb tetramer) was found to be 2. Besides, in test [2], the Kd amounted to 2.9 µM and the stoichiometry N (HpuA per Hb4:Hp4 complex) worked out at 2.

Regarding TbpAB (from UniProt Q9K0U9), the Kd in test [3] was 0.0008 µM.

In the case of human haemoglobin (complex), the Kd amounted to 150 µM in test [4], 10 µM in test [5], 16 µM in test [6] and 6.1 µM in test [7]. Besides, in test [7], the stoichiometry N (Hb tetramers per HpuA) amounted to 0.5.
